This note sets out measurements from patent publication US7033773B1, “Screening assays for G protein coupled receptor agonists and antagonists” (The General Hospital Corporation, priority 1997, dated 2006).

Holding throughout (format): cell-based
Test [1] addresses T1, rat PTHR (Rattus norvegicus, UniProt P25961).
T1 construct: expressed in transfected cells; host or cells: LLC-PK1 porcine renal epithelial cells (EW5; also EW29, AR-C38, AR-B44)
T1 sequence (P25961 27-591): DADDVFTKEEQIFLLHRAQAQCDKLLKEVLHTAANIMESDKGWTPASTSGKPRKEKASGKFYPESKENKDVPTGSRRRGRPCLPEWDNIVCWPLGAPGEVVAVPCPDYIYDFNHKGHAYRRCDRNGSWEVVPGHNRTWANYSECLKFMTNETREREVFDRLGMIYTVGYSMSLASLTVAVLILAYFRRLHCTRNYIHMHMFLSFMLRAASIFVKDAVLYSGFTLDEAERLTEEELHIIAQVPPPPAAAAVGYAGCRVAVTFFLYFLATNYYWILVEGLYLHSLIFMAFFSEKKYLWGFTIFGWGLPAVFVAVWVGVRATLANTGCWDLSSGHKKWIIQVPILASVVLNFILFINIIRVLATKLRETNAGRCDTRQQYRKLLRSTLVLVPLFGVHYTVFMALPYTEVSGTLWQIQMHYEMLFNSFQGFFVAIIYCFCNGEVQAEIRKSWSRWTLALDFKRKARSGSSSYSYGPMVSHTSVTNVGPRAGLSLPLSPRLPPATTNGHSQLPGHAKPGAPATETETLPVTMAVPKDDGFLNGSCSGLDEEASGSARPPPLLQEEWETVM
Kind of test: Cellular cAMP accumulation in LLC-PK1 cells expressing rat PTHR. The following applies: EW5 cells. The method, then:
FIG. 10. Stimulation of cyclic AMP accumulation by hPTH(1-31) and hPTH(1-34) in LLC-PK1 cells that express rat PTHRs. Cyclic AMP accumulation was measured in response to hPTH(1-34) (●) or hPTH(1-31) (Δ) in EW5 cells that expressed 320,000 rat PTHRs per cell. Results are expressed as fold basal.
(§1) Cells were seeded into 24-well plates at a density of 2.5×10^5 cells/well and cultured for a further 2 days before study. The cells were rinsed once with 0.5 ml of ice-cold Buffer B [10 mM HEPES (pH 7.4), 130 mM NaCl, 5 mM KCl, 1.2 mM CaCl2, 1 mM MgCl2, 1.2 mM Na2HPO^4 5 mM glucose, and 0.1% heat-inactivated BSA] supplemented with 1 mM isobtylmethylxanthine (IBMX), and placed on ice. Treatments were added to each well in 0.25 ml of IBMX-supplemented Buffer B, after which the plates were incubated at 37° C. for 15 min. The buffer then was rapidly aspirated, the plates were rapidly transferred onto liquid nitrogen, and the frozen monolayers were subsequently thawed directly into 0.5 ml of 50 mM HCl. The extracted cAMP then was measured using a commercial RIA kit (Dupont-New England Nuclear, Boston, Mass.). Results were expressed as fold-basal, where basal levels ranged between 38 and 128 pmol/mg protein/15 min. The basal level of cAMP accumulation in native LLC-PK1 cells was not consistently altered in subclones that expressed wild type PTH/PTHrp receptors.
In general terms: cAMP levels reflect the balance of adenylyl cyclase and phosphodiesterase activity.

Test [2] concerns the target T1, rat PTHR. Description: u-PA secretion bioassay in LLC-PK1 cells expressing rat PTHR.
In test [3] the target is T2, human PTH/PTHrP receptor (Homo sapiens, UniProt Q03431).
T2 sequence (Q03431 27-593): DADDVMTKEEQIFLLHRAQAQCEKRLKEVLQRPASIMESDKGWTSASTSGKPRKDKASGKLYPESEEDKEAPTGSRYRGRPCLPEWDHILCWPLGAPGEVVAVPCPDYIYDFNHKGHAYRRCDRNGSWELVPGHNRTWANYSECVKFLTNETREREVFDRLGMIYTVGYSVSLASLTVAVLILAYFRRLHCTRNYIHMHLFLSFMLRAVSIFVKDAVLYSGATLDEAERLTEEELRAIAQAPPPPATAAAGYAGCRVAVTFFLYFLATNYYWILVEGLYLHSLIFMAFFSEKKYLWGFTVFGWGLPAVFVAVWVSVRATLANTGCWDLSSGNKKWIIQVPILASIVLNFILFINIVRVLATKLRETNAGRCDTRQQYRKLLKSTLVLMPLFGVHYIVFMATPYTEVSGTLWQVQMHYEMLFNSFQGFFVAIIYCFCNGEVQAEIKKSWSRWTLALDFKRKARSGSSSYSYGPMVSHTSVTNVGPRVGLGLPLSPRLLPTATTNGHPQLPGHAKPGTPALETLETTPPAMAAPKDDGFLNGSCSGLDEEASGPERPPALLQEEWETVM
Description: Cellular cAMP accumulation in LLC-PK1 cells expressing human PTHR. The following applies: HKRK B28 cells; similar in HKRK B7. More on the design: transfected with a full-length human PTH/PTHrP receptor cDNA; expressed in transfected cells. The procedure:
as §1
Maximal PTH-dependent cAMP accumulation was assessed in the human PTHR-transfected LLC-PK1 subclones following incubation for 15 min with a high concentration (1000 nM) of hPTH(1-34) (Table 1). As reported previously for LLC-PK1 cells that stably expressed rat PTHRs (Guo, J., et al., Endocrinology 136:3884-3891 (1995)), the maximal adenylyl cyclase response was relatively independent of the surface density of human PTHRs above a relatively low threshold (relative to that required for PLC activation—see below). In the case of the human PTHR, however, this threshold for saturation of maximal AC activation appeared to lie between 120,000 and 280,000 (Table 1), which is at least 6 to 10-fold higher than that previously observed for the rat PTHR (Guo, J., et al., Endocrinology 136:3884-3891 (1995)).

For hPTH(1-31), the entries for the “activation of AC (in words)” value in test [1] and in test [3] were “activated AC equivalently” and “indistinguishable from that to hPTH(1-34)”, respectively. In addition, in test [2] (EW5 cells, 320,000 rat PTHRs per cell, peptide 1000 nM, mean±SEM), the “u-PA Activity” value was determined as 41.2 ± 1.2 units/well. Besides, in test [2] (EW5 cells, 100 nM of either peptide), the “u-PA production at 16 hr (in words)” value is on record as “identical”.
